Experimental findings from the supplement of paper PMC7877785 are described below.

± gives the uncertainty stated by the source.

This data set in a line: self-splicing fitness, log relative to wild type (ln ratio); higher = more splicing; Tetrahymena group I intron in knt gene, E. coli kanamycin selection, DiMSum; sequences stand for … in CUCUCU…GGAGGGAAAAGUUAUCAGGCAUGCACCUGGUAGCUAGUCUUUAAACCAAUAGAUUGCAUCGGUUUAAAAGGCAAGACCGUCAAAUUGCGGGAAAGGGGUCAACAGCCGUUCAGUACCAAGUCUCAGGGGAAACUUUGAGAUGGCCUUGCAAAGGGUAUGGUAAUAAGCUGACGGACAUGGUCCUAACCACGCAGCCAAGUCCUAAGUCAACAGAUCUUCUGUUGAUAUGGAUGCAGUUCACAGACUAAAUGUCGGUCGGGGAAGAUGUAUUCUUCUCAUAAGAUAUAGUCGGACCUCUCCUUAAUGGGAGCUAGCGGAUGAAGUGAUGCAACACUGGAGCCGCUGGGAACUAAUUUGUAUGCGAAAGUAUAUUGAUUAGUUUUGGAGUACUCGUGGUCG
In a few lines:
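Six replicate transformations of E. coli BL21(DE3) with a pET-22b(+) library were grown overnight at 37°C or 30°C. The library randomised all eight P1ex-region intron nucleotides, the intron lying in the knt kanamycin-resistance gene, and plates were LB agar with or without 25 μg/mL kanamycin plus 100 μg/mL carbenicillin, 50 μM IPTG and 0.2% rhamnose. Pooled colonies were amplicon-sequenced on an Illumina HiSeq 2500, and fitness is the DiMSum error-weighted combination of wild-type-normalised replicate fold changes, kanamycin versus none.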

In the case of UUCCAGCAAUAUUACGCCGU, the “self-splicing fitness (ln)” value was -2.53 ± 0.16 (30 °C) and -1.43 ± 0.23 (37 °C). Consider AAGGAGCAAUAUUACGGACC, for which the “self-splicing fitness (ln)” value is, setting by setting: (30 °C) -2.55 ± 0.17; (37 °C) -2.97 ± 0.33. Consider CUCCAGCAAUAUUACGGCUC, for which the “self-splicing fitness (ln)” value is, setting by setting: (30 °C) -2.78 ± 0.23; (37 °C) -1.57 ± 0.17.

ACACAGCAAUAUUACGUCCG: the “self-splicing fitness (ln)” value (30 °C) was -1.3 ± 0.079 and the “self-splicing fitness (ln)” value (37 °C) was found to be 0.213 ± 0.11. The like results for UCGGAGCAAUAUUACGGAGA were, in that order, -3.67 ± 0.21 and -1.49 ± 0.14. The corresponding values for CUGAAGCAAUAUUACGUAGU are -4.3 ± 0.23 and -3.22 ± 0.26.

As to GCGUAGCAAUAUUACGCCGC, the “self-splicing fitness (ln)” value (30 °C) was -2.36 ± 0.42. For the sequence AGUGAGCAAUAUUACGAGCU, the “self-splicing fitness (ln)” value reads like this: (30 °C) -2.44 ± 0.23; (37 °C) -1.07 ± 0.5. The like results for GCUGAGCAAUAUUACGGAGA were, in that order, -2.79 ± 0.43 and -1.85 ± 0.28. Consider UAAUAGCAAUAUUACGAGUG, for which the “self-splicing fitness (ln)” value reads like this: (30 °C) -1.11 ± 0.08; (37 °C) -0.572 ± 0.09. The like results for GUUCAGCAAUAUUACGCGUG were, in that order, -0.852 ± 0.083 and 0.166 ± 0.088. The corresponding values for GGUGAGCAAUAUUACGCGUU are -2.61 ± 0.15 and -0.173 ± 0.16. The corresponding values for AUUAAGCAAUAUUACGGUGA are -1.3 ± 0.13 and -0.588 ± 0.14. Turning to ACGGAGCAAUAUUACGCUUU, the “self-splicing fitness (ln)” value runs as follows: (30 °C) -4.74 ± 0.38; (37 °C) -1.98 ± 0.17. The like results for GCUCAGCAAUAUUACGGGCC were, in that order, -2.8 ± 0.2 and -3.37 ± 0.25. In the case of AACGAGCAAUAUUACGUGGC, the “self-splicing fitness (ln)” value by setting is: (30 °C) -3.85 ± 0.3; (37 °C) -2.94 ± 0.27.

On to UGGAAGCAAUAUUACGAACU, for which the “self-splicing fitness (ln)” value runs as follows: (30 °C) 0.00939 ± 0.14; (37 °C) -0.029 ± 0.13. Regarding UAUUAGCAAUAUUACGGCAG, the “self-splicing fitness (ln)” value is, setting by setting: (30 °C) -0.281 ± 0.085; (37 °C) -0.424 ± 0.12. The like results for CAACAGCAAUAUUACGCACC were, in that order, -3.36 ± 0.34 and -0.879 ± 0.3.

As to CAGGAGCAAUAUUACGGCAG, the “self-splicing fitness (ln)” value by setting is: (30 °C) -1.41 ± 0.083; (37 °C) -1.27 ± 0.09. The like results for UGUAAGCAAUAUUACGAGUA were, in that order, -1.48 ± 0.11 and -0.65 ± 0.12. For GUCGAGCAAUAUUACGGCCC, the “self-splicing fitness (ln)” value (37 °C) is -1.43 ± 0.4. In the case of CCACAGCAAUAUUACGACGA, the “self-splicing fitness (ln)” value by setting is: (30 °C) -3.12 ± 0.19; (37 °C) -2.09 ± 0.16. The like results for CGAUAGCAAUAUUACGCCAC were, in that order, -2.44 ± 0.44 and -0.944 ± 0.43. As to CAAGAGCAAUAUUACGUCGG, the “self-splicing fitness (ln)” value is, setting by setting: (30 °C) -1.4 ± 0.087; (37 °C) -1.37 ± 0.11. The like results for UCUUAGCAAUAUUACGCAAG were, in that order, -1.34 ± 0.2 and -2.48 ± 0.28. The corresponding values for UUGCAGCAAUAUUACGCAAA are -1.35 ± 0.21 and -2.35 ± 0.39. The corresponding values for CGCAAGCAAUAUUACGUGUC are -2.39 ± 0.12 and -2.68 ± 0.16. As for UUCAAGCAAUAUUACGCCUU, the “self-splicing fitness (ln)” value runs as follows: (30 °C) -1.8 ± 0.13; (37 °C) -0.968 ± 0.2. The corresponding values for GUUCAGCAAUAUUACGGCUA are -0.564 ± 0.14 and -0.232 ± 0.15.

As to UUUAAGCAAUAUUACGAGUU, the “self-splicing fitness (ln)” value (30 °C) was -2.48 ± 0.17 and the “self-splicing fitness (ln)” value (37 °C) was -2.09 ± 0.17. The like results for CCAAAGCAAUAUUACGCGUC were, in that order, -3.17 ± 0.21 and -2.98 ± 0.34. The corresponding values for ACGCAGCAAUAUUACGUGGC are -2.88 ± 0.14 and -2.26 ± 0.17. With AAUAAGCAAUAUUACGUGCC, the “self-splicing fitness (ln)” value (37 °C) came to 0.782 ± 0.26. Consider GAUGAGCAAUAUUACGCUGU, for which the “self-splicing fitness (ln)” value (30 °C) is -3.68 ± 0.26 and the “self-splicing fitness (ln)” value (37 °C) was -2.35 ± 0.26. Regarding GGCUAGCAAUAUUACGAAUU, the “self-splicing fitness (ln)” value is, setting by setting: (30 °C) -0.487 ± 0.19; (37 °C) -0.299 ± 0.15. AGCAAGCAAUAUUACGGCUA: the “self-splicing fitness (ln)” value (30 °C) was -1.07 ± 0.088 and the “self-splicing fitness (ln)” value (37 °C) was -0.869 ± 0.093.

Consider GCGGAGCAAUAUUACGGCUC, for which the “self-splicing fitness (ln)” value (30 °C) is -2.05 ± 0.36. GAUCAGCAAUAUUACGGCCG: the “self-splicing fitness (ln)” value is, setting by setting: (30 °C) -0.635 ± 0.13; (37 °C) -0.245 ± 0.14. The corresponding values for CAUCAGCAAUAUUACGAUAG are -0.277 ± 0.1 and -0.0749 ± 0.14.

Consider AAUUAGCAAUAUUACGCGGA, for which the “self-splicing fitness (ln)” value is -1.56 ± 0.16 (30 °C) and -1.3 ± 0.12 (37 °C).

As to UUGAAGCAAUAUUACGGACC, the “self-splicing fitness (ln)” value runs as follows: (30 °C) -1.12 ± 0.14; (37 °C) -0.125 ± 0.2. On to CUCCAGCAAUAUUACGGACG, for which the “self-splicing fitness (ln)” value was -0.729 ± 0.059 (30 °C) and -0.666 ± 0.09 (37 °C).

CGACAGCAAUAUUACGAUCC: the “self-splicing fitness (ln)” value is, setting by setting: (30 °C) -0.0657 ± 0.16; (37 °C) -0.196 ± 0.19.

As for CGUCAGCAAUAUUACGCACG, the “self-splicing fitness (ln)” value is -2.16 ± 0.11 (30 °C) and -1.22 ± 0.12 (37 °C).

For CACAAGCAAUAUUACGCUAC, the “self-splicing fitness (ln)” value was -3.18 ± 0.19 (30 °C) and -2.26 ± 0.18 (37 °C). With GAGAAGCAAUAUUACGGACA, the “self-splicing fitness (ln)” value by setting is: (30 °C) -0.633 ± 0.11; (37 °C) -1.02 ± 0.14.

For the sequence GACUAGCAAUAUUACGCCUU, the “self-splicing fitness (ln)” value runs as follows: (30 °C) -0.605 ± 0.067; (37 °C) 0.734 ± 0.092. The like results for AUCUAGCAAUAUUACGCGCU were, in that order, -1.97 ± 0.23 and -0.909 ± 0.2. On to UCGAAGCAAUAUUACGUACG, for which the “self-splicing fitness (ln)” value runs as follows: (30 °C) -1.01 ± 0.082; (37 °C) 0.00936 ± 0.11. Take UUACAGCAAUAUUACGAAAU: the “self-splicing fitness (ln)” value (30 °C) is -3.69 ± 0.34 and the “self-splicing fitness (ln)” value (37 °C) was -2.59 ± 0.33.

As for CCACAGCAAUAUUACGUUCA, the “self-splicing fitness (ln)” value (30 °C) was -3.27 ± 0.16 and the “self-splicing fitness (ln)” value (37 °C) was -2.5 ± 0.19. Take ACGGAGCAAUAUUACGGGAU: the “self-splicing fitness (ln)” value reads like this: (30 °C) -1.84 ± 0.14; (37 °C) -1.83 ± 0.2. As to CCUGAGCAAUAUUACGGCGA, the “self-splicing fitness (ln)” value was -3.62 ± 0.46 (30 °C) and -2.62 ± 0.38 (37 °C).

Take GCUGAGCAAUAUUACGACGU: the “self-splicing fitness (ln)” value is -1.45 ± 0.057 (30 °C) and -0.232 ± 0.064 (37 °C).

As to ACAGAGCAAUAUUACGACUU, the “self-splicing fitness (ln)” value by setting is: (30 °C) -2.44 ± 0.16; (37 °C) -1.52 ± 0.15. The corresponding values for AACUAGCAAUAUUACGGACC are -0.676 ± 0.071 and -0.0449 ± 0.11. On to GCGGAGCAAUAUUACGGGCC, for which the “self-splicing fitness (ln)” value (30 °C) is -2.57 ± 0.42. In the case of GAUAAGCAAUAUUACGUUUG, the “self-splicing fitness (ln)” value is -2.07 ± 0.17 (30 °C) and -1.92 ± 0.17 (37 °C).

On to CCUGAGCAAUAUUACGCAUG, for which the “self-splicing fitness (ln)” value was -4.37 ± 0.34 (30 °C) and -2.27 ± 0.28 (37 °C). As to GGGGAGCAAUAUUACGCAUA, the “self-splicing fitness (ln)” value is -3.29 ± 0.48 (30 °C) and -2.28 ± 0.32 (37 °C). For the sequence AAAGAGCAAUAUUACGCCUU, the “self-splicing fitness (ln)” value is, setting by setting: (30 °C) -3.49 ± 0.29; (37 °C) -1.81 ± 0.23. The like results for UCUGAGCAAUAUUACGGCUG were, in that order, -3.48 ± 0.2 and -2.22 ± 0.21. UUAAAGCAAUAUUACGCGGC: the “self-splicing fitness (ln)” value reads like this: (30 °C) -2.74 ± 0.29; (37 °C) -1.03 ± 0.2. As for UUCUAGCAAUAUUACGCCAU, the “self-splicing fitness (ln)” value (30 °C) was -2.66 ± 0.32. Consider UACAAGCAAUAUUACGGCAC, for which the “self-splicing fitness (ln)” value reads like this: (30 °C) -1.64 ± 0.14; (37 °C) -0.345 ± 0.2. The corresponding values for CAAUAGCAAUAUUACGACAU are -3.694 ± 0.024 and -2.38 ± 0.037. On to AACAAGCAAUAUUACGUAUU, for which the “self-splicing fitness (ln)” value runs as follows: (30 °C) -1.77 ± 0.079; (37 °C) -0.983 ± 0.092. On to UCCGAGCAAUAUUACGUUCG, for which the “self-splicing fitness (ln)” value (30 °C) was -2.69 ± 0.49 and the “self-splicing fitness (ln)” value (37 °C) was -1.78 ± 0.42. The like results for ACACAGCAAUAUUACGGCAU were, in that order, -1.12 ± 0.049 and 0.227 ± 0.062.

Consider CAAAAGCAAUAUUACGGGAU, for which the “self-splicing fitness (ln)” value was -3.95 ± 0.19 (30 °C) and -3.04 ± 0.22 (37 °C).

As for GUCCAGCAAUAUUACGUCUU, the “self-splicing fitness (ln)” value (30 °C) was -0.409 ± 0.081 and the “self-splicing fitness (ln)” value (37 °C) stood at 0.275 ± 0.092. In the case of CCCGAGCAAUAUUACGUGAC, the “self-splicing fitness (ln)” value (37 °C) is -2.41 ± 0.3.

On to UUAAAGCAAUAUUACGGCGG, for which the “self-splicing fitness (ln)” value stood at 0.463 ± 0.11 (30 °C) and 0.0127 ± 0.13 (37 °C). On to UCCGAGCAAUAUUACGAACU, for which the “self-splicing fitness (ln)” value (37 °C) was -2.3 ± 0.32. Regarding ACCCAGCAAUAUUACGUGAC, the “self-splicing fitness (ln)” value (30 °C) is -1.07 ± 0.047 and the “self-splicing fitness (ln)” value (37 °C) was -1.25 ± 0.085. Regarding AAUAAGCAAUAUUACGCUCC, the “self-splicing fitness (ln)” value is -1.46 ± 0.23 (30 °C) and -0.799 ± 0.24 (37 °C).
